According to patent US20030199671A1, “Binding molecules for Fc-region polypeptides” (priority 2001, published 2003):
Read-outs that look alike come from different tables or passages of the source. Positions of bridges follow the written chain, without caps; N, C: chain ends. Residues, ends and D or L forms follow the SMILES beside them.

What was measured:
IgG4 = IgG4 (Homo sapiens, UniProt P01861); type: binding; parameters: all human subtypes derived from myeloma patients; purchased Calbiochem 400126; host or cells: myeloma patients; settings: for % IgG Capture - Batch Binding, Human IgG4: Table 9, immobilized peptide, 5.0 mg/ml resin load
Sequence of IgG4 (P01861 1-327 isoform P01861-1): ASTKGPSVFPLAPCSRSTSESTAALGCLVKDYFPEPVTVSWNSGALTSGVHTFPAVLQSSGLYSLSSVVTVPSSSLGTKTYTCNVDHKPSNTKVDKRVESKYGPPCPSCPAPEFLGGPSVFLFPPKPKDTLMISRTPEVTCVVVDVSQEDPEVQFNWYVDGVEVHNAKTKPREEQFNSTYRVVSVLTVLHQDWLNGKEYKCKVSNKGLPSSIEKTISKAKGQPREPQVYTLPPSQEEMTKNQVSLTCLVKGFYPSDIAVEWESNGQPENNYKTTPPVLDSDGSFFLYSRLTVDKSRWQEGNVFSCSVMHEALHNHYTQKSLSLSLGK
In short: (§1)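 Read-out is A280 of unbound IgG (1.4 mg/ml extinction coefficient), with percent bound derived against non-filtered or negative controls. Targets were incubated with immobilized peptides in PBST or TBST for 1-1.5 h at room temperature. Hydrolyzed Sepharose and immobilized Protein A serve as negative and positive controls.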

goat IgG = type: binding
In short: (§2)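 Species specificity was assessed by static binding of unfractionated IgG to peptide resin in pH 7.2 phosphate or pH 7.5 Tris buffer with 0.01% Tween 20. Bound fraction was calculated from A280 of unbound target.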

human IgG1 = target: T1, human IgG1 (Homo sapiens, UniProt P01857); type: binding; settings: for % IgG Capture - Batch Binding, Human IgG1: Table 9, immobilized peptide, 5.0 mg/ml resin load
T1 construct: all human subtypes derived from myeloma patients; purchased Calbiochem 400120; host or cells: myeloma patients
T1 sequence (P01857 1-330 isoform P01857-1): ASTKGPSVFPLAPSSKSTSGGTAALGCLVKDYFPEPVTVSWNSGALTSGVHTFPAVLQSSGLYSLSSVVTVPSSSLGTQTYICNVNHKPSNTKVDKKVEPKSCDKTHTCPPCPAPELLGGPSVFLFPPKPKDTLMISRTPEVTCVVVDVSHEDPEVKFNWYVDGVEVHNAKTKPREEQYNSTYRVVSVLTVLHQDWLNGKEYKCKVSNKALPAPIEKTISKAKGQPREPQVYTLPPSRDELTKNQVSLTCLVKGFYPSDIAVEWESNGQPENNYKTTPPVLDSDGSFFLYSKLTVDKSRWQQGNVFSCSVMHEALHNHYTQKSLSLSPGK
In short: (§3)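 Static binding, peptide resin + IgG, 1-1.5 h RT with shaking, PBST pH 7.2 or TBST pH 7.5. Flow-through read at A280 vs buffer blank; % bound = control minus unbound. Elution at pH 8.5 bicarbonate and/or pH 4.0 citrate, 30-60 min.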

human IgG = type: binding
In short: as §2

mouse IgG = type: binding
In short: as §2

human IgG2 = target: T2, human IgG2 (Homo sapiens, UniProt P01859); type: binding; settings: for % IgG Capture - Batch Binding, Human IgG2: Table 9, immobilized peptide, 5.0 mg/ml resin load
T2 construct: all human subtypes derived from myeloma patients; purchased Calbiochem 400122; host or cells: myeloma patients
T2 sequence (P01859 1-326 isoform P01859-1): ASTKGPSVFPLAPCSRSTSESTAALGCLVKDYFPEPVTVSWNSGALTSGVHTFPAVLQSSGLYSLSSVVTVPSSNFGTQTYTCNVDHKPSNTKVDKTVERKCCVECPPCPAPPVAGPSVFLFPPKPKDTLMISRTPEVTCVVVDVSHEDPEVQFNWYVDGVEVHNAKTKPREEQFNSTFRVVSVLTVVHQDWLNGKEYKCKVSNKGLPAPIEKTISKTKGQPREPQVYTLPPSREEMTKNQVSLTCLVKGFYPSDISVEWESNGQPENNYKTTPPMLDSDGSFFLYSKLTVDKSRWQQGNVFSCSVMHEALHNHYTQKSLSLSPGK
In short: as §1

bovine IgG = type: binding
In short: as §2

IgG3 = IgG3 (Homo sapiens, UniProt P01860); type: binding; parameters: all human subtypes derived from myeloma patients; purchased Calbiochem 400124; host or cells: myeloma patients; settings: for % IgG Capture - Batch Binding, Human IgG3: Table 9, immobilized peptide, 5.0 mg/ml resin load
Sequence of IgG3 (P01860 1-377 isoform P01860-1): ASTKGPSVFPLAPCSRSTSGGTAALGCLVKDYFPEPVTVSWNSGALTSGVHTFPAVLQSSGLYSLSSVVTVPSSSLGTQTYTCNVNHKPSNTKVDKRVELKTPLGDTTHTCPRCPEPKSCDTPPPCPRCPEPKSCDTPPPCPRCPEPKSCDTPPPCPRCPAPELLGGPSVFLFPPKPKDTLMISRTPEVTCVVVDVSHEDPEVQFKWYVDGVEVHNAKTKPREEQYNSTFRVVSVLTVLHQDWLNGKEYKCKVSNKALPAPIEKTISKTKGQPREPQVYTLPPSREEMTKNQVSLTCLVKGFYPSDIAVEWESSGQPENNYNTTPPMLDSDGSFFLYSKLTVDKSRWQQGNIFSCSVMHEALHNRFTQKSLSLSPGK
In short: as §3

human plasma IgG2 = target: T3, human plasma IgG2 (Homo sapiens, UniProt P01859); assay: Fluorescence anisotropy binding, Oregon Green labeled peptide
T3 construct: the individual human plasma IgG isoforms: IgG1, IgG2, IgG3, or IgG4; purchased Calbiochem; host or cells: human plasma
T3 sequence (P01859 1-326 isoform P01859-1): as the sequence (P01859 1-326 isoform P01859-1) above
Experimental: (§4) Peptides were synthesized by BACHEM and then Oregon Green labeled and HPLC purified. Binding studies were performed using human plasma IgG isoforms: IgG1, IgG2, IgG3, and IgG4, obtained from Calbiochem.
(§5) Binding studies were carried out at either pH 4.0, 7.5, or 9.5, with or without salt in the following buffers:
(§6) 2) 10 mM Sodium Citrate, 500 mM Sodium Chloride, 0.01% Tween 20, pH 4.0;
(§7) 4) […], 500 mM Sodium Chloride, 0.01% Tween 20, pH 7.5;
(§8) 5) 10 mM Sodium Bicarbonate, 0.01% Tween 20, pH 9.5;
(§9) 6) 10 mM Sodium Bicarbonate, 500 mM Sodium Chloride, 0.01% Tween 20, pH 9.5; or […]

human plasma IgG4 = target: T4, human plasma IgG4 (Homo sapiens, UniProt P01861); assay: as above
T4 construct: the individual human plasma IgG isoforms: IgG1, IgG2, IgG3, or IgG4; purchased Calbiochem; host or cells: human plasma
T4 sequence (P01861 1-327 isoform P01861-1): as the sequence (P01861 1-327 isoform P01861-1) above
Experimental: as §4, §5, §6, §7, §8, §9

human plasma IgG1 = target: T5, human plasma IgG1 (Homo sapiens, UniProt P01857); assay: as above
T5 construct: the individual human plasma IgG isoforms: IgG1, IgG2, IgG3, or IgG4; purchased Calbiochem; host or cells: human plasma
T5 sequence (P01857 1-330 isoform P01857-1): as the sequence (P01857 1-330 isoform P01857-1) above
Experimental: as §4, §5, §6, §7, §8, §9

[1] = Table 10, elution 0.1 M sodium bicarbonate buffer, pH 8.5
[2] = Table 10, elution 0.1 M sodium citrate buffer, pH 4.0
[3] = Table 13, average ligand density 1.8 μM/ml
[4] = Table 14, average ligand density 1.8 μM/ml

Molecule: CC[C@H](C)[C@@H]1NC(=O)[C@H](CCCCN)NC(=O)[C@@H](NC(=O)[C@H](Cc2c[nH]c3ccccc23)NC(=O)[C@H](Cc2ccc(O)cc2)NC(=O)[C@H](CO)NC(=O)CNC(=O)[C@H](C)NC(C)=O)CSSC[C@@H](C(=O)N2CCC[C@H]2C(=O)N[C@@H](CCC(N)=O)C(=O)N[C@@H](CO)C(=O)N2CCC[C@H]2C(=O)NCC(=O)N2CCC[C@H]2C(=O)N[C@@H](CCC(=O)O)C(=O)NCC(=O)NCC(=O)NCC(=O)N[C@@H](CCCCN)C(N)=O)NC(=O)[C@H](C(C)C)NC(=O)[C@H](CC(=O)O)NC(=O)[C@H](Cc2c[nH]c3ccccc23)NC1=O [DX392] (Ac-AGSYWCKIWDVCPQSPGPEGGGK-NH2; disulfide 6-12 (inferred))
- % IgG Capture - Batch Binding, Human IgG4 (IgG4): 9%
- % IgG Capture - Batch Binding, Goat IgG (goat IgG; Table 11, unfractionated IgG): 0%
- % IgG Capture - Batch Binding, Human IgG1 (human IgG1): 13%
- % IgG Capture - Batch Binding, Human IgG (human IgG; Table 11, unfractionated IgG): 4%
- % IgG Capture - Batch Binding, Mouse IgG (mouse IgG; Table 11, unfractionated IgG): 0%
- % IgG Capture - Batch Binding, Human IgG2 (human IgG2): 15%
- % IgG Capture - Batch Binding, Bovine IgG (bovine IgG; Table 11, unfractionated IgG): 0%
- % IgG Capture - Batch Binding, Human IgG3 (IgG3): 76%
- Kd (human plasma IgG2; 10 nM Tris-HCl, 500 mM Sodium Chloride, pH 7.5, read-out: KD (μM) IgG2 pH 7.5 + salt): > 10 µM
- Kd (human plasma IgG2; 10 mM Sodium Bicarbonate, 500 mM Sodium Chloride, pH 9.5, read-out: KD (μM) IgG2 pH 9.5 + salt): > 10 µM
- Kd (human plasma IgG2; 10 mM Sodium Bicarbonate, pH 9.5, read-out: KD (μM) IgG2 pH 9.5 − salt): > 10 µM
- Kd (human plasma IgG2; 10 mM Sodium Citrate, 500 mM Sodium Chloride, pH 4.0, read-out: KD (μM) IgG2 pH 4.0 + salt): > 10 µM
- Kd (human plasma IgG2; 10 mM Sodium Citrate, pH 4.0, read-out: KD (μM) IgG2 pH 4.0 − salt): > 10 µM
- Kd (human plasma IgG2; 10 mM Tris-HCl, pH 7.5, read-out: KD (μM) IgG2 pH 7.5 − salt): > 10 µM
- Kd (human plasma IgG2; TBS, 0.01% Tween 20, pH 7.5, read-out: KD (μM) IgG2 TBS): > 10 µM
- Kd (human plasma IgG4; 10 nM Tris-HCl, 500 mM Sodium Chloride, pH 7.5, read-out: KD (μM) IgG4 pH 7.5 + salt): > 10 µM
- Kd (human plasma IgG4; 10 mM Sodium Bicarbonate, 500 mM Sodium Chloride, pH 9.5, read-out: KD (μM) IgG4 pH 9.5 + salt): > 10 µM
- Kd (human plasma IgG4; 10 mM Sodium Bicarbonate, pH 9.5, read-out: KD (μM) IgG4 pH 9.5 − salt): > 10 µM
- Kd (human plasma IgG4; 10 mM Sodium Citrate, 500 mM Sodium Chloride, pH 4.0, read-out: KD (μM) IgG4 pH 4.0 + salt): > 10 µM
- Kd (human plasma IgG4; 10 mM Sodium Citrate, pH 4.0, read-out: KD (μM) IgG4 pH 4.0 − salt): > 10 µM
- Kd (human plasma IgG4; 10 mM Tris-HCl, pH 7.5, read-out: KD (μM) IgG4 pH 7.5 − salt): > 10 µM
- Kd (human plasma IgG4; TBS, 0.01% Tween 20, pH 7.5, read-out: KD (μM) IgG4 TBS): > 10 µM
- Kd (human plasma IgG1; 10 nM Tris-HCl, 500 mM Sodium Chloride, pH 7.5, read-out: KD (μM) IgG1 pH 7.5 + salt): > 10 µM
- Kd (human plasma IgG1; 10 mM Sodium Bicarbonate, 500 mM Sodium Chloride, pH 9.5, read-out: KD (μM) IgG1 pH 9.5 + salt): > 10 µM
- Kd (human plasma IgG1; 10 mM Sodium Bicarbonate, pH 9.5, read-out: KD (μM) IgG1 pH 9.5 − salt): > 10 µM
- Kd (human plasma IgG1; 10 mM Sodium Citrate, 500 mM Sodium Chloride, pH 4.0, read-out: KD (μM) IgG1 pH 4.0 + salt): > 10 µM
- Kd (human plasma IgG1; 10 mM Sodium Citrate, pH 4.0, read-out: KD (μM) IgG1 pH 4.0 − salt): > 10 µM
- Kd (human plasma IgG1; 10 mM Tris-HCl, pH 7.5, read-out: KD (μM) IgG1 pH 7.5 − salt): > 10 µM
- Kd (human plasma IgG1; TBS, 0.01% Tween 20, pH 7.5, read-out: KD (μM) IgG1 TBS): > 10 µM

Molecule: Prot. A: immobilized recombinant Protein A (RepliGen Corp., product no. IPA-400), positive control [reference compound]
- % IgG Capture - Batch Binding, Human IgG4 (IgG4): 96%
- Human IgG4 bdg % (% of Total Load) (IgG4; Table 10, batch binding): 92%
- Human IgG4 elu pH 8.5 (% of Total Load) (IgG4; [1]): 2%
- Human IgG4 elu pH 4.0 (% of Total Load) (IgG4; [2]): 95%
- hIgG4 elution pH 2.5 (% of Total Load) (IgG4; Table 13): 70%
- hIgG4 elution pH 3.0 (% of Total Load) (IgG4; Table 13): 77%
- hIgG4 elution pH 3.5 (% of Total Load) (IgG4; Table 13): 87%
- hIgG4 elution pH 4.5 (% of Total Load) (IgG4; Table 13): 27%
- hIgG4 elution pH 5.5 (% of Total Load) (IgG4; Table 13): 6%
- hIgG4 elution pH 9.0 (% of Total Load) (IgG4; Table 13): 7%
- hIgG4 elution pH 9.5 (% of Total Load) (IgG4; Table 13): 8%
- hIgG4 Bound (% of Total Load) (IgG4; [3]): 89%
- % IgG Capture - Batch Binding, Goat IgG (goat IgG; Table 11, unfractionated IgG): 23%
- % IgG Capture - Batch Binding, Goat IgG (goat IgG; [4]): 20%
- % IgG Capture - Batch Binding, Human IgG1 (human IgG1): 95%
- Human IgG1 bdg % (% of Total Load) (human IgG1; Table 10, batch binding): 93%
- Human IgG1 elu pH 8.5 (% of Total Load) (human IgG1; [1]): 2%
- Human IgG1 elu pH 4.0 (% of Total Load) (human IgG1; [2]): 79%
- hIgG1 elution pH 2.5 (% of Total Load) (human IgG1; Table 13): 80%
- hIgG1 elution pH 3.0 (% of Total Load) (human IgG1; Table 13): 80%
- hIgG1 elution pH 3.5 (% of Total Load) (human IgG1; Table 13): 86%
- hIgG1 elution pH 4.5 (% of Total Load) (human IgG1; Table 13): 29%
- hIgG1 elution pH 5.5 (% of Total Load) (human IgG1; Table 13): 3%
- hIgG1 elution pH 9.0 (% of Total Load) (human IgG1; Table 13): 3%
- hIgG1 elution pH 9.5 (% of Total Load) (human IgG1; Table 13): 3%
- hIgG1 Bound (% of Total Load) (human IgG1; [3]): 96%
- % IgG Capture - Batch Binding, Human IgG (human IgG; Table 11, unfractionated IgG): 86%
- % IgG Capture - Batch Binding, Human IgG (human IgG; [4]): 81%
- % IgG Capture - Batch Binding, Mouse IgG (mouse IgG; Table 11, unfractionated IgG): 77%
- % IgG Capture - Batch Binding, Mouse IgG (mouse IgG; [4]): 69%
- % IgG Capture - Batch Binding, Human IgG2 (human IgG2): 92%
- Human IgG2 bdg % (% of Total Load) (human IgG2; Table 10, batch binding): 93%
- Human IgG2 elu pH 8.5 (% of Total Load) (human IgG2; [1]): 8%
- Human IgG2 elu pH 4.0 (% of Total Load) (human IgG2; [2]): 75%
- hIgG2 elution pH 2.5 (% of Total Load) (human IgG2; Table 13): 75%
- hIgG2 elution pH 3.0 (% of Total Load) (human IgG2; Table 13): 75%
- hIgG2 elution pH 3.5 (% of Total Load) (human IgG2; Table 13): 76%
- hIgG2 elution pH 4.5 (% of Total Load) (human IgG2; Table 13): 65%
- hIgG2 elution pH 5.5 (% of Total Load) (human IgG2; Table 13): 22%
- hIgG2 elution pH 9.0 (% of Total Load) (human IgG2; Table 13): 13%
- hIgG2 elution pH 9.5 (% of Total Load) (human IgG2; Table 13): 18%
- hIgG2 Bound (% of Total Load) (human IgG2; [3]): 85%
- % IgG Capture - Batch Binding, Bovine IgG (bovine IgG; Table 11, unfractionated IgG): 72%
- % IgG Capture - Batch Binding, Bovine IgG (bovine IgG; [4]): 60%
- % IgG Capture - Batch Binding, Human IgG3 (IgG3): 1%
- Human IgG3 bdg % (% of Total Load) (IgG3; Table 10, batch binding): 5%
- Human IgG3 elu pH 8.5 (% of Total Load) (IgG3; [1]): 0%
- Human IgG3 elu pH 4.0 (% of Total Load) (IgG3; [2]): 0%
- hIgG3 elution pH 2.5 (% of Total Load) (IgG3; Table 13): 0%
- hIgG3 elution pH 3.0 (% of Total Load) (IgG3; Table 13): 0%
- hIgG3 elution pH 3.5 (% of Total Load) (IgG3; Table 13): 0%
- hIgG3 elution pH 4.5 (% of Total Load) (IgG3; Table 13): 0%
- hIgG3 elution pH 5.5 (% of Total Load) (IgG3; Table 13): 0%
- hIgG3 elution pH 9.0 (% of Total Load) (IgG3; Table 13): 0%
- hIgG3 elution pH 9.5 (% of Total Load) (IgG3; Table 13): 0%
- hIgG3 Bound (% of Total Load) (IgG3; [3]): 0%
